According to patent US20080025968A1 (YEDA RESEARCH AND DEVELOPMENT, published 2008):

How the values were obtained:
IKK1, endogenous = target: T1, IKK1, endogenous (human, UniProt O15111 1-745); experiment: western blot of the p55 TNF receptor complex from Ramos cells after TNF (FIG. 5c)
T1 construct: mature; also called IKKα
T1 sequence (looked up): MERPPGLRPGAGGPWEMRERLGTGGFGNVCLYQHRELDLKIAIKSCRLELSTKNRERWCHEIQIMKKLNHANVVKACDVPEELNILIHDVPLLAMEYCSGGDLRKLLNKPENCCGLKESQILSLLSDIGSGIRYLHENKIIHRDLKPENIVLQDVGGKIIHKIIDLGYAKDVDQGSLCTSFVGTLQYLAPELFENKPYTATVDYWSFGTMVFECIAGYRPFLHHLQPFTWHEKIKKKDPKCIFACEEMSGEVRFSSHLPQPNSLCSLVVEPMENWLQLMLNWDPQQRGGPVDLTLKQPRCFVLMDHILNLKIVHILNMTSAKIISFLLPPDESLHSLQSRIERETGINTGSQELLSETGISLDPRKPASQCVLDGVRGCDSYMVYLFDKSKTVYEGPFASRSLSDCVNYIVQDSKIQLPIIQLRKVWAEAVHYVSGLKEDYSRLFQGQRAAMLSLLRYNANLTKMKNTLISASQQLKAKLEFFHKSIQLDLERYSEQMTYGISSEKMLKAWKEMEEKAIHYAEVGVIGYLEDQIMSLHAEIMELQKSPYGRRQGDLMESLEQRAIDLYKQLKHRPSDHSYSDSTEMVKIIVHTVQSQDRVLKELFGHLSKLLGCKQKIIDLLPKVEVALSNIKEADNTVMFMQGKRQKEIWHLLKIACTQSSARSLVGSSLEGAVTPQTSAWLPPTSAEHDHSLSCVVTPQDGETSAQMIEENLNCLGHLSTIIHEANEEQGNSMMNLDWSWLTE

p65, endogenous = target: T2, p65, endogenous (human, UniProt Q04206 1-551); experiment: western blot of the p55 TNF receptor complex from Ramos cells (FIG. 6a)
T2 construct: mature; also called RelA
Protocol: (§1) Transfections, immunoblotting and immunoprecipitations were performed as described in Example 2 and Example 3 of the Examples section. For immunoprecipitation of the CD70/CD27 ligand-receptor complexes from resting PBMC and Ramos cells, cell lysates were prepared as described for the kinase tests aforementioned and incubated for 4 hours at 4° C. with 25 μl of 50% M2-FLAG agarose beads per ml of lysate. The TNF-receptor complex was precipitated as described (Zhang et al., 2000). The signalosome from cell lysates was immunoprecipitated using a 1:1 mixture of two different antibodies against IKK1 (M-280 and H-744, Santa Cruz). Immunoprecipitation was allowed to continue for 2 hours at 4° C., using 10 μg of anti-IKKα antibodies adsorbed to 25 μl of 50% protein-A-Sepharose beads per ml of lysate.

NF-κB2/p100, endogenous = target: T3, NF-κB2/p100, endogenous (human, UniProt Q00653 1-900); experiment: as above
T3 construct: mature
T3 sequence (looked up): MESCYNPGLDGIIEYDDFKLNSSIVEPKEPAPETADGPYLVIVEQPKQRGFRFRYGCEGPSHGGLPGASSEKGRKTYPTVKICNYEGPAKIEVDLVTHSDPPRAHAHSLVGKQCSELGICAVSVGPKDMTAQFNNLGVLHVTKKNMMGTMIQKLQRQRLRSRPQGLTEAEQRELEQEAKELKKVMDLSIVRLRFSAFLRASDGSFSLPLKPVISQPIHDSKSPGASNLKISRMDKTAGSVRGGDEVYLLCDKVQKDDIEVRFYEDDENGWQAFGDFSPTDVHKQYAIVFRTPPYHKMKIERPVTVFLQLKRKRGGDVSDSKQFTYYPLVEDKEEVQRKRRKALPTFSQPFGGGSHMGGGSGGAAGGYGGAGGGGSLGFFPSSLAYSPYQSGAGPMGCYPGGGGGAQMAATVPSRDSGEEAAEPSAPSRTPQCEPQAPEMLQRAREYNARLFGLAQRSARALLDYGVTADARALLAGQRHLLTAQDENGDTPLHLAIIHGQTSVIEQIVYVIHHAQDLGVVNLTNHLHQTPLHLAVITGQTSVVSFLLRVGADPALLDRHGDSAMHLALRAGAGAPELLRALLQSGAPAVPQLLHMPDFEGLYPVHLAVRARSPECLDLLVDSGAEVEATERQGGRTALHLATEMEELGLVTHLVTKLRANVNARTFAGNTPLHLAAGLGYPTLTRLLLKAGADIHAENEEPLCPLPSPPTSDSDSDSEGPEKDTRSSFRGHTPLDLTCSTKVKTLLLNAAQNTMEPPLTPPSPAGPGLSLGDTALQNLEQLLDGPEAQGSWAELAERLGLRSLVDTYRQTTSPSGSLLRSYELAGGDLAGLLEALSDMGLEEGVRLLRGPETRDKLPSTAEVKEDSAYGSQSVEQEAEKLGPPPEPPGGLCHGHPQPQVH
Protocol: as §1

p50, endogenous = target: T4, p50, endogenous (human, UniProt P19838 1-433); experiment: as above
T4 construct: also called NF-κB1 processed form
T4 sequence (looked up): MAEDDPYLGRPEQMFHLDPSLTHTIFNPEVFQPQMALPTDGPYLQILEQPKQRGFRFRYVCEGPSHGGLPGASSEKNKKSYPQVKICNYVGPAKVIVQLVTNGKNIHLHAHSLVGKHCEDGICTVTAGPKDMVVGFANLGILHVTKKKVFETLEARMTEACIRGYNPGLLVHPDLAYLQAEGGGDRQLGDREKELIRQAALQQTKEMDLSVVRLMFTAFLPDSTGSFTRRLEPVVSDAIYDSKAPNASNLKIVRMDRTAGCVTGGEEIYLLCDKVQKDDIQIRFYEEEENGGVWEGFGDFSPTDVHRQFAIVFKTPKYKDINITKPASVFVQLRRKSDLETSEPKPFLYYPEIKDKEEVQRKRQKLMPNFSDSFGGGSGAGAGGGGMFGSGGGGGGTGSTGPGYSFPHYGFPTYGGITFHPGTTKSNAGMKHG
Protocol: as §1

[1] = target: T5, myc-NIK (NIK N-terminally fused to the myc tag) (human, UniProt Q99558 1-947); experiment: western blot of the p55 TNF receptor complex from NIK-deficient Ramos cells replenished with NIK (FIG. 6d)
T5 construct: Expressed in HEK293T cells for co-immunoprecipitation, the reporter test and the kinase test; also called myc-tagged NIK; wild type NIK
Protocol: as §1
In NIK− cells, recruitment to the p55 TNF receptor occurred just as effectively as in the wild type cells (FIG. 6c, right panel). In contrast, recruitment of the signalosome components to CD27 was completely abolished (FIGS. 6c, d, left panels). Introduction of the wild type NIK, but not of “kinase-dead” NIK, to the NIK− cells reintated the recruitment in response to CD70 (FIG. 6d, middle and right panels). […] This recruitment could be observed both in cells expressing the wild type enzyme and in those that expressed its “[…]” mutant (FIG. 6d). […]

T5 sequence (Q99558 other isoform, or with tags, fused parts or gaps): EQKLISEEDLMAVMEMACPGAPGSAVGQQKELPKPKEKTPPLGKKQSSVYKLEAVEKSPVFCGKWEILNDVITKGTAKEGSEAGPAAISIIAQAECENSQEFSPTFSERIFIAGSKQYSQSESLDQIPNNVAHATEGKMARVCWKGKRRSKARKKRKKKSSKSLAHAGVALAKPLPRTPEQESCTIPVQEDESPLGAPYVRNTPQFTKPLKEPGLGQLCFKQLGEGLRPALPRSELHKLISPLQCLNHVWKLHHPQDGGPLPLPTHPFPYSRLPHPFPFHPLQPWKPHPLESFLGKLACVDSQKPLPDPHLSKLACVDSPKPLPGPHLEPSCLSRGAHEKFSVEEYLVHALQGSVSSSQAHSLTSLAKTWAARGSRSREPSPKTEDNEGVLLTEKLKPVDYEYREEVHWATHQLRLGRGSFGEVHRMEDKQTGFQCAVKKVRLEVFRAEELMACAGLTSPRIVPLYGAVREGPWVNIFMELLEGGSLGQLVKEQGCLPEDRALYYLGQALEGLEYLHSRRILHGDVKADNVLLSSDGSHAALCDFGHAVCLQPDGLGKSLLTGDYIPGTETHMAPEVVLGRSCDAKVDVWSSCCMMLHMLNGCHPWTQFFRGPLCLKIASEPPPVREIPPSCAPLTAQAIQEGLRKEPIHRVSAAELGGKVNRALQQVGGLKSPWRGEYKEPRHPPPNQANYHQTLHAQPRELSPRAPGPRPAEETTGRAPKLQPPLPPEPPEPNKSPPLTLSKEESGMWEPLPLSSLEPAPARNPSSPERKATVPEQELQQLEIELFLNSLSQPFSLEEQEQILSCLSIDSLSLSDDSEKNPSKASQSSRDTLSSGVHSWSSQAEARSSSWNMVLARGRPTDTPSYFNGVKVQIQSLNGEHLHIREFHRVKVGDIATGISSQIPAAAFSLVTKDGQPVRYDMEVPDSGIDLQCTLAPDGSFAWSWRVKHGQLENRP
T2 sequence (Q04206 whole entry): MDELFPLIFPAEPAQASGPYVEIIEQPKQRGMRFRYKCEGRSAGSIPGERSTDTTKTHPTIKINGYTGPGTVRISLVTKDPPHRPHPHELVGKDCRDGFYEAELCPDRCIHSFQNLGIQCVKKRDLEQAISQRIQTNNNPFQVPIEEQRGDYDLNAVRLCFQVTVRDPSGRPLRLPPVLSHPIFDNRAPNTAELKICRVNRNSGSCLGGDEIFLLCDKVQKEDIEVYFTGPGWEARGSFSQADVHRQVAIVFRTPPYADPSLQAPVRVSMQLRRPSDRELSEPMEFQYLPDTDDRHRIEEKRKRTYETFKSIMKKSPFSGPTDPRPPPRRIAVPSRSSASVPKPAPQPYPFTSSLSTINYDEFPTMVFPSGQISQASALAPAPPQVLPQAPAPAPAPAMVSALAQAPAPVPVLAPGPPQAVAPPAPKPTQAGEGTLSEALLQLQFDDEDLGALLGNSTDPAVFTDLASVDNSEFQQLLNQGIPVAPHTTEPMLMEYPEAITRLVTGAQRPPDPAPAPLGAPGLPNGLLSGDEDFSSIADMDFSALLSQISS

binding result (IKK1, endogenous): binds
binding result (p65, endogenous): binds
binding result (NF-κB2/p100, endogenous): binds
binding result (p50, endogenous): binds
binding result [1]: no binding
B1: p55 TNF receptor, endogenous in Ramos cells (receptor, human, UniProt P19438 30-455, looked up)
chain: LVPHLGDREKRDSVCPQGKYIHPQNNSICCTKCHKGTYLYNDCPGPGQDTDCRECESGSFTASENHLRHCLSCSKCRKEMGQVEISSCTVDRDTVCGCRKNQYRHYWSENLFQCFNCSLCLNGTVHLSCQEKQNTVCTCHAGFFLRENECVSCSNCKKSLECTKLCLPQIENVKGTEDSGTTVLLPLVIFFGLCLLSLLFIGLMYRYQRWKSKLYSIVCGKSTPEKEGELEGTTTKPLAPNPSFSPTPGFTPTLGFSPVPSSTFTSSSTYTPGDCPNFAAPRREVAPPYQGADPILATALASDPIPNPLQKWEDSAHKPQSLDTDDPATLYAVVENVPPLRWKEFVRRLGLSDHEIDRLELQNGRCLREAQYSMLATWRRRTPRREATLELLGRVLRDMDLLGCLEDIEEALCGPAALPPAPSLLR
notes: whole, on cells; TNF-receptor complex precipitated as described by Zhang et al., 2000
